experiment: soluble fraction after stress (log2 fold change); higher = more stays soluble; pooled small domains, quantitative proteomics; conditions: stress: pH 4
Summary of the method: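 After pH 4 stress, pooled custom libraries of small protein domains were quantified with high-throughput quantitative proteomics. Aggregation propensity is taken from the fold change in each domain's soluble amount following the acid stress. The scale is log2, where higher values mean more stayed soluble.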

Row | Sequence | soluble fraction (log2)
1 | HMNDYNLTDREKEVLTFLFQGLEYKEIGMKMSVSPNTIRNHISNIYKKLHVTSKTQAIRVFLNN | -0.0426
2 | HMNEAMIMIDLKGKSRDEAVKELDELNLKYRFTGNGIVKDQKPKAGEEINSDTVVEVELSEIK | -0.105
3 | HMNEDYFTIAGYASLRGVNIDTSKANMLGRKATKLSREYGYDIGKVTDTRFGKVNSYHLDILKSIFEF | -0.646
4 | HMNEFSYLSELGSEKGDLIKGLQLVQSREGYVSDDAIRAISKHFSIAEAEVEGVLTFYAQFK | -1.25
5 | HMNEIESFSNTKNPFSLTFKTSKDSSYKVEASSNLKKWTTLSQIKGTGNPITFTESRRILFRKQYYRVTLS | 0.102
6 | HMNEISFYPNPAKESLTVKGLSEITSYSISDINGKLIQYGTTFDRINLEKLTKGFYFLTIGNTISKKLIV | -0.0595
7 | HMNEISLKEITIEEDHPWRDKKIKELDLKEHILVAMIRRKDQDIIPNGETKIYKDDILVIYD | -1.73
8 | HMNEKFNVYPIPVYNNLNITGLSKPVTYLISSIDGKTIKNGVFQESIDVSDLKSGLYFLQVETKDPVKFIK | -0.999
9 | HMNEKLNEYLNQVKAYLNTSDNKEDIIKELEAVVLEKAEKKYGQITDESISKILSEFGSPAEVAKEYS | -0.103
10 | HMNEKLRNYIDTLFEHAPTTVRAVELKEEMFQNLTDKYNDLIAQGKSEEAAFNIAVASIGDVDSLIAGLS | -0.459
11 | HMNELGSLIKRKREELGLSQEELARILGYKHKSSINKIELGLADVPRTKVPAFAKALGMTPVEFS | 0.063
12 | HMNELPSVIIMKNGRTRPYELQEISKDEEWLNQTIREHGIEPKDIFIAEFWDGRTAFILNDGRIVK | -1.14
13 | HMNERIKSLRKALGLTQQEFADKLGISRGNIGAYEVGKNAPSDAVISLIVRIFNTNENWLRTGEGEM | -0.246
14 | HMNETSRTRALNILGLKATATQEDIKKAYRSLAKEYHPDKLVGVSEGVKKISEEKFREINEAYEYLI | -0.00502
15 | HMNEVIIKNWSNAVGRNIKIKTKRGRPIFGRLLAINDQQLTIASKYMRGNATITVAREDVVSMSVS | 0.22
16 | HMNEVRINTAHIEHKYLGEVKVLDIQEMRNARGRDADPLAFLAIRFWSPRGVLVRVKDSRDATPYWLIS | -0.227
17 | HMNEYHRNISDEEFVRDIKETAIKLKKETLTGVEYSQNGKYHASTIIHRFGSWKKALELAELNTK | 0.257
18 | HMNFNYPVIVKNSRINVSGVLSAAKLYTINGQLLQSYKGSGEFTSKTLTKGIYILQVDNARTKVLV | ≥ 0.43
19 | HMNFSKEYILVHSYKEIDILDALIVKYEATLVNREFDLFINSYIKINEDYAKLFRDEIISKTSGSMSIKEL | -2.12
20 | HMNFTKHPENPNFVVYRFTDPERANSFRAELIANNISFEEDTEKKKQLIYTLFAIHTKYYNQSMQINIK | -0.0767
21 | HMNFTVTDKNAVLYSNDNTKVYESPDINSKLVTTIAKDLPVNVTGITSNGWFRISLEGTYYVPGNGLEQR | -0.251
22 | HMNGADPYEQLGVTRDASDDELKAAHRKLSRENHPDTLMAKGMPPEFIEQANDKMARINAAWDQIRKERGI | 0.124
23 | HMNGAITLRVRPSDEGKRLDVFVVSQLTGYTRSFVAGLIGDRHFLVNGQPKKPGYRIKSSDTISGVIPAPA | 0.157
24 | HMNGARALAGAIAEAIRKQVYRVNERLPAERELASHYDVSRGTLRSALALLEQEGLVTRKVGSGTFVMPP | 0.161
25 | HMNGNLRAQVLELMGRADYEPLNKSELSRKLDLQGSDRSSLRILMDELERDHSVVRLKKGRFALKVV | 0.0349
26 | HMNGQFIELKNTTGTIIEARVLSFQNGKVKLQRNDGLIFVASISIFDSESIEVIKQKVAEISESKKS | -0.0246

Row | Sequence | soluble fraction (log2)
27 | HMNGQITPSRAKEIALGHAGVSEGSANFKKIKLDNKNGRPAYEIEFIANNSRYEFEINASNGSIIKFNK | -0.0812
28 | HMNGYGALVRLGRSRGWVTVEEINDHLPESAVRTAENVQEITEALGRLSIKVFETRPDEDDLLIT | -0.613
29 | HMNHGDATTETQAEIMAILSDMKPHPITELNTIKRPYEQIDTALTYLINEEKIYRMDGMIFIG | -0.915
30 | HMNHYTEEYILKRMKDFFTTHAYITRRDIESLFGFRRSYATKWLKHFRESGVLKQSGPVNSAVYLL | -1.12
31 | HMNIAESIRKYRKASGLTQEEMAKRLGVTTPAVSKWENGITNPDIALLAPIARLFHISVDTLLSYR | 0.0976
32 | HMNIDKLVGSTGTVVRSVTPDTAGLVRVNDEDWRASAEEILYERDAIVVEGIEGVTLIVSKLS | -1.54
33 | HMNIETHIVPKLLAPIRLQEYGVGIFNNIPTKSALKKALKKQLITVDKTVATTATFIKGGETIELAYQ | -0.299
34 | HMNIGEKIKTLRENNNISIEELAEKINDSIENILKYENNELEPTLDKKLALSIALGVTLSDLS | -0.975
35 | HMNIGELINKKRTELGLTLEEVGNAVGVSKSTVKKWEDGFISNMRRDKISKLAKVLEMNPVSLITGE | -0.0212
36 | HMNIGSKLRYLIEEANITQRQLADALHISPSALNGYINQGKEPDYATLVRIADYFHTSTDYLLGHSNIR | -0.202
37 | HMNIIATHTVPAIEQKIRLQEYAISIFPQINSRSALKKAIAKKLVLLDGERASTADWIQPGQKIELLEDK | -0.274
38 | HMNILAPFWERFGLSAFAAGNYDRAEGYFRKLEQKDPNSMSVLRNLGLILMAKGDAEGAEAYLLREEKL | -0.643
39 | HMNILKKDKRLWDENNLNKPLLFELLENYDKEIFELLLTDKDIKAKFFVQAGESYVFKYDDFRFAIEQN | -1.75
40 | HMNIMAQDWISSPMGPISFKSNQHGLVKIGWGEVPRENTEQPNLEFTRKWLVDYFEGKASPLPYF | -1.55
41 | HMNIQGIFGRNLKQKRLEKGMTQEQLAEKAGVSTDTVKRYESGKYDGIRLDMAWYMANALDTPLQALLPP | 0.0744
42 | HMNISALKGKIGEVYLKIPAHNAGKGKVLISLKGTHHELYAITRSGEDISSGEFVKVIEIEDEILVVEK | -0.537
43 | HMNITFAENIKQFRKAKSMSMEELGKRLGKAKSSISAWENGKRTPKINELKSISEALGVTISQLLGF | -0.293
44 | HMNIYIEFGRRLAFIRQNSKLSQSQIAQKLNIAQSTYAGYEKGVRKIPLEIIVQLSKILNISPTILILG | -0.618
45 | HMNKADFLRKLDRELSVLDQEERKEILSFYEERFYTGTNYENKTELDIINELENPEIIAKNVLEEYGV | -1.45
46 | HMNKDEFLRRLEDALSGEVPASVIRENLNYYADYLSQELGKGRTMDEIIEEIGEPNIVARTIINSAEAA | -0.602
47 | HMNKDWQDEVALQRYTMITPLLSEDLDNAKRIAMREKIAQDNLTTARSLYRYEKAYRENGFQGLRPTD | -0.262
48 | HMNKEIEDYVATYSSMKAKEAAAIFDTMTSDLDLVAKILEAMSADDRAKILEQMNEENAARLTKMMD | -0.654
49 | HMNKEQIASNIAEARKRSGLNQSELARRLGIRPQSVQQWEKGTATPKLDRLTAIAQVLGVSLESLTG | 0.22
50 | HMNKFADLAGNIIYNENGVEVFNFGKYKGQPVAEVFKKDIGYYGWIQNADFPRYTKKVFTAIQLKSK | -0.0985
51 | HMNKIDVVEVDMSKPYEDMTVTELQNVILGKLASNGPVTDQMKKDVAENIYHDSLVNWAKSF | -0.303
52 | HMNKIENLSQTILNILRKDHSQAFNYKQIAAKLQLDDPSSRNQIVKKLKDLQGKGTIQEIERGKYILTP | ≥ 0.43

Row | Sequence | soluble fraction (log2)
53 | HMNKITIDQAKEIALNHAKLTAEQVSFIRTESEFDDGIEKYNIEFYYNNQKYDYDINAVNGQIIQYDLEG | -0.23
54 | HMNKITIEEAKSIALKHSNLDESQVSFIRSEYDFDNGIEKYEIEFYYNNNKYEYEINAKTGDIISYDYDI | -0.528
55 | HMNKKAAYKDMAGYFAEMKSKDAADILSRLKDEDIIGIFNEMPRDMVAEMLQKMDRDKATTLTRKML | 0.235
56 | HMNKKEQYQNIISNFLEKMSEEDRLIFNMHFFKSINISQIARSIDREGYYVKTKIENLLADLKSLMIGNNL | -1.17
57 | HMNKKETRLNNFIHFLKIRNSITVKEMANHLNVSEMTVRRDIKELTADHTINFENGKIMFNPQSSL | 0.33
58 | HMNKLIIDAAEDKIFFMIMNNDISYNISHENTKINFEKLIILINDFLSSKKLKINDITGLYV | -0.233
59 | HMNKNIKIPNISNLSREDAESVLKESGISVSTEIKEVESDTIEKGKVVKTEPSIGSTVKQGRTITIYISSG | 0.092
60 | HMNKRYKVQVTTDNLKIRKGAGTSYPVVGHITDKGTYTIVETSGKWGKLLSGAGWIYLSYTKK | 0.22
61 | HMNKTEIISILEKIVLPTQIRNINIFGSEVIIDLNIDNPSLHAKKKLEKSIINSFDKNHKIIINFNVE | -0.514
62 | HMNKTLTEQIYDELKSAIIELELKPGEFVTEEYLAEQLGVSRTPLKSAISKLIFEGLMAYEVGKGTYIS | -1.32
63 | HMNKVQTFIIEKHIKEVFEHTNRTYYRSGQYYFQTRDEFSMALKRFLKDREPNKKNWIDSIINRA | 0.195
64 | HMNKYQFESKIHIYRATKRMTQQELADLVGVSRQTIMQLERNRYNPSMMLAYGIAKVFDVTIEDLFDFSEV | 0.0457
65 | HMNKYYQQLLQADPTGFIDPFKDLGTYDSRLNTFKEPVSELLNPFSGRPYSKIWQKRIETMREIFISYIKS | -0.213
66 | HMNLDVEQIKKEALNQLIEIGNENDGIVTIKDFKKIDDISSLDEDDIEDIRNLLIENNIEIFE | -0.641
67 | HMNLEQTIVLGKRLFNNALDTLGKKQRSIKNKQINKLLELLNFKNMNELYQSIGVGDKNPLLMAQMML | -0.045
68 | HMNLESNQYVIDISDSQVINKDEFETILNQNKTKDIVIKSNNNVTFTFEKGSMIGAEGKDNYDFSSQVNY | -0.588
69 | HMNLFNEIEKQYQALQDRSSASLVDLRHLLLDIEELVNSPDYQALAPDQRSTLQAARKELMRRIQKQEN | -0.193
70 | HMNLGDSLFHARRKQGLSQEAVAEQLGVSRQTVSKWEANETLPDIRQSKLMAKLYHTSLDELI | 0.138
71 | HMNLLDYTTLYVTSDGKSVSFGIAGKEIPVSYIAQEAPGTVVIDDTIRIPRKYDMEYILKRFNES | -1.33
72 | HMNLLGDNIRKLRLEKGLGLNEVARLANITGGYLSSIENNKRTNVGTEILESIAKAIGVSVSDFYL | -0.0496
73 | HMNLLGERIREIRMEMGLTAKELAQRASVTPGYISQIEHDQIKPSMNVMMRIAEVLNVPMAALLM | ≥ 0.43
74 | HMNLLPAGTYKLKDLVTAEDEEIGAKKGDVVIAHEDTPPSDRVLGVDIFPVIHKNTSKKIYVSLEDI | 0.101
75 | HMNLMQIHVARPPNQLGVFSQEEVAAGLQSGRFLPTDQAWRDGMSAWTPLSQWAEFSSVVAAV | -0.307
76 | HMNLNLDITTYKLEELENLLKLKPNYKQEQIFEAKTKMEKFILKSNLNESKREELYIFLDNIYNKLTNNLL | -1.34

Reference: the domain aggregation screens of Martell et al. (2025)
